{"source": "patent US20220175781A1", "about": "“CD40L COMPOSITIONS AND METHODS FOR TUNABLE REGULATION” (Obsidian Therapeutics, Inc., priority 2019, published 2022)", "molecules": {"B1": {"name": "OT-001662: CD40L construct with ecDHFR (M1del, R12Y, Y100I) DRD, ligand TMP (protein)", "chain": "MSGISLIAALAVDYVIGMENAMPWNLPADLAWFKRNTLNKPVIMGRHTWESIGRPLPGRKNIILSSQPGTDDRVTWVKSVDEAIAACGDVPEIMVIGGGRVIEQFLPKAQKLYLTHIDAEVEGDTHFPDYEPDDWESVFSEFHDADAQNSHSYCFEILERRHMIETYNQTSPRSAATGLPISMKIFMYLLTVFLITQMIGSALFAVYLHRRLDKIEDERNLHEDFVFMKTIQRCNTGERSLSLLNCEEIKSQFEGFVKDIMLNKEETKKENSFEMQKGDQNPQIAAHVISEASSKTTSVLQWAEKGYYTMSNNLVTLENGKQLTVKRQGLYYIYAQVTFCSNREASSQAPFIASLCLKSPGRFERILLRAANTHSSAKPCGQQSIHLGGVFELQPGASVFVNVTDPSQVSHGTGFTSFGLLKL"}}, "assay_type_in_all_cases": "cell-based", "key": {"[1]": {"tested_on": "CD4+ T cells", "assay": "Ligand dose response, % CD40L positive cells, CD4+ T cells", "method": "Ligand dose response curve experiments were performed with increasing doses of ligand using OT-001662 and OT-001666 constructs in both CD4+ as well as CD8+ T cells.\nThe experiments were conducted using three different volumes of virus for transduction i.e. 0.5, 2 and 10 μL."}, "[2]": {"tested_on": "HEK-Blue™ CD40 cells", "assay": "HEK-Blue CD40 SEAP reporter co-culture with transduced Jurkat cells", "details": "ligand 24 h (1 μM Shield-1, 50 μM TMP or 1 μM Bazedoxifene), recombinant soluble CD40L as standard"}, "[3]": {"tested_on": "CD8 positive T cells", "assay": "CD40L MFI by FACS in transduced CD8 positive T cells", "method": "Regulation of ecDHFR (R12Y, Y100I) DRD based construct OT-001662 and ER (N413D) DRD based construct OT-001666 were tested in CD8 positive T cells. For OT-001662, expressing cells, ligand was added 6 days after viral transduction at a dose of 50 μM TMP. OT-001666 expressing cells were treated with 0.5 μM Bazedoxifene or vehicle control, 5 days after transduction. Approximately 15-30k cells were analyzed per sample by FACS. All samples were compared to empty vector control as well as the constitutively expressed construct, OT-001661. Table 11 provides the mean fluorescence intensities (MFIs) obtained with each sample."}, "[4]": {"tested_on": "T cells", "assay": "Dose response of TMP, Bazedoxifene or Raloxifene, % CD40L positive T cells", "details": "T cells", "method": "T cells were transduced with OT-001662 or OT-001666. On day 4, cells were treated with increasing doses of TMP for T cells expressing OT-001662. Cells expressing OT-001666 were treated either with increasing concentrations of Bazedoxifene or Raloxifene. The data are shown in Table 30 as the percentage of CD40L positive T cells."}, "[5]": {"tested_on": "Jurkat cells", "assay": "Surface expression of CD40L by FACS in lentivirally transduced Jurkat cells", "details": "FACS", "method": "50,000 Jurkat cells were transduced with lentiviruses corresponding to the constructs. OT-001661, OT-001685, OT-001662, or OT-001666 and cultured for 48h. Cells were split and incubated with ligands for 24h before analysis by flow cytometry.\nJurkat cells were treated with one of the following: 1 μM Shield-1, 50 μM TMP, 1 μM Bazedoxifene (BZD) or vehicle control. Surface expression of CD40L was measured using FACS and the results are show in Table 9. All values were normalized to mode."}, "[6]": {"tested_on": "Monocyte derived dendritic cells (mDC)", "assay": "Cytokine production in mDC-T cell co-culture (MSD)", "details": "for Cytokine Production IFNg / Cytokine Production IL12 / Cytokine Production TNFa: mDC-T cell co-culture 2 days", "excerpt": "In order to engage dendritic cells in an immune response, dendritic cells must be converted to a functional state by an antigen-specific CD4+ helper T cell. Activation of the dendritic cells may be followed by the activation of CD8+ T cells by the dendritic cells, a process referred to as dendritic cell licensing. Engagement of the CD40L expressed on the CD4+ cells with the CD40 on the dendritic cells can result in (i) dendritic cell stimulation-measured by expression of co-stimulatory and MHC molecules (ii) proinflammatory cytokine release (e.g. IL12, TNFα and INFγ) (iii) epitope spreading. To measure the effect of CD40L expression that is tuned by the biocircuits of the present disclosure, CD4+ T cells or Jurkat cells expressing any of the CD40L constructs described herein were co-cultured with dendritic cells.\nDendritic cell function in response to co-culture with T cells expressing CD40L was evaluated in the presence of ligand or corresponding vehicle control. Monocyte derived dendritic cells (mDC) (CD14+) were isolated from fresh blood and cultured for 5 days with IL-4 (7.5 ng/mL) and GM-CSF (20 ng/mL). The mDCs were frozen down after the 5 day culture. T cells were transduced with OT-001662 and expanded for 9 days before being frozen down. mDCs and T cells were thawed and co-cultured 1:10 DC: T cell ratio (i.e. 5×10^4 DCs: 5×10^5 T cells). mDC and T cells were co-cultured for 2 days before cells were collected for flow cytometry and supernatants were collected for cytokine analysis. For evaluation of regulated constructs, ligand (various doses of TMP) was added at the time initiating the co-culture and was kept in the co-culture for 2 days. Cytokines were analyzed by MSD after a single freeze thaw cycle. All cells were cultured in complete RPMI with 10% FBS during the course of the experiment. SR indicates stabilization ratio."}, "[7]": {"details": "ligand 24 h (1 μM Shield-1 OT-001685, 50 μM TMP OT-001662, 1 μM Bazedoxifene OT-001666)"}, "[8]": {"details": "vehicle 24 h (Ethanol 0.2% OT-001685, DMSO 0.5% OT-001662, DMSO 0.01% OT-001666)"}}}
{"molecule": "B1", "values": [{"measurement": "% CD40L positive cells", "setting": "[1]; 0.5 μL virus, TMP 0.05 nM", "value": 31.6, "unit": "%"}, {"measurement": "% CD40L positive cells", "setting": "[1]; 0.5 μL virus, TMP 0.5 nM", "value": 32, "unit": "%"}, {"measurement": "% CD40L positive cells", "setting": "[1]; 0.5 μL virus, TMP 5 nM", "value": 33.9, "unit": "%"}, {"measurement": "% CD40L positive cells", "setting": "[1]; 0.5 μL virus, TMP 50 nM", "value": 35.7, "unit": "%"}, {"measurement": "% CD40L positive cells", "setting": "[1]; 0.5 μL virus, TMP 500 nM", "value": 48.2, "unit": "%"}, {"measurement": "% CD40L positive cells", "setting": "[1]; 0.5 μL virus, TMP 5000 nM", "value": 67, "unit": "%"}, {"measurement": "% CD40L positive cells", "setting": "[1]; 0.5 μL virus, TMP 50000 nM", "value": 68.9, "unit": "%"}, {"measurement": "% CD40L positive cells", "setting": "[1]; 2 μL virus, TMP 0.05 nM", "value": 25.1, "unit": "%"}, {"measurement": "% CD40L positive cells", "setting": "[1]; 2 μL virus, TMP 0.5 nM", "value": 24.4, "unit": "%"}, {"measurement": "% CD40L positive cells", "setting": "[1]; 2 μL virus, TMP 5 nM", "value": 27.6, "unit": "%"}, {"measurement": "% CD40L positive cells", "setting": "[1]; 2 μL virus, TMP 50 nM", "value": 37.4, "unit": "%"}, {"measurement": "% CD40L positive cells", "setting": "[1]; 2 μL virus, TMP 500 nM", "value": 68.4, "unit": "%"}, {"measurement": "% CD40L positive cells", "setting": "[1]; 2 μL virus, TMP 5000 nM", "value": 76.8, "unit": "%"}, {"measurement": "% CD40L positive cells", "setting": "[1]; 2 μL virus, TMP 50000 nM", "value": 76.8, "unit": "%"}, {"measurement": "% CD40L positive cells", "setting": "[1]; 10 μL virus, TMP 0.05 nM", "value": 23.8, "unit": "%"}, {"measurement": "% CD40L positive cells", "setting": "[1]; 10 μL virus, TMP 0.5 nM", "value": 24.2, "unit": "%"}, {"measurement": "% CD40L positive cells", "setting": "[1]; 10 μL virus, TMP 5 nM", "value": 24.6, "unit": "%"}, {"measurement": "% CD40L positive cells", "setting": "[1]; 10 μL virus, TMP 50 nM", "value": 30.7, "unit": "%"}, {"measurement": "% CD40L positive cells", "setting": "[1]; 10 μL virus, TMP 500 nM", "value": 58.5, "unit": "%"}, {"measurement": "% CD40L positive cells", "setting": "[1]; 10 μL virus, TMP 5000 nM", "value": 79.1, "unit": "%"}, {"measurement": "% CD40L positive cells", "setting": "[1]; 10 μL virus, TMP 50000 nM", "value": 78.8, "unit": "%"}, {"measurement": "Soluble CD40L", "setting": "[2]", "value": 8657.75, "unit": "pg/mL"}, {"measurement": "Expression of CD40L in the presence of ligand, comparison of constructs", "setting": "[3]", "value": "higher than the ER DRD based construct"}, {"measurement": "CD40L MFI", "setting": "[3]; +Ligand (50 μM TMP OT-001662; 0.5 μM Bazedoxifene OT-001666)", "value": 283}, {"measurement": "CD40L MFI", "setting": "[3]; Vehicle", "value": 29.0}, {"measurement": "% CD40L positive T cells, dose response", "setting": "[4]; increasing doses of TMP", "value": "dose dependent increase"}, {"measurement": "Percent of cells expressing CD40L", "setting": "[4]; TMP Dose 0.01 μM", "value": 8.74, "unit": "%"}, {"measurement": "Percent of cells expressing CD40L", "setting": "[4]; TMP Dose 0.1 μM", "value": 13.3, "unit": "%"}, {"measurement": "Percent of cells expressing CD40L", "setting": "[4]; TMP Dose 1 μM", "value": 38.8, "unit": "%"}, {"measurement": "Percent of cells expressing CD40L", "setting": "[4]; TMP Dose 10 μM", "value": 71, "unit": "%"}, {"measurement": "Percent of cells expressing CD40L", "setting": "[4]; TMP Dose 100 μM", "value": 73.3, "unit": "%"}, {"measurement": "CD40L positive percent of live cells", "setting": "[5]; [7]", "value": 98.4, "unit": "%"}, {"measurement": "Geometric Mean of CD40L fluorescent intensity", "setting": "[5]; [7]", "value": 6068}, {"measurement": "CD40L positive percent of live cells", "setting": "[5]; [8]", "value": 0.023, "unit": "%"}, {"measurement": "Geometric Mean of CD40L fluorescent intensity", "setting": "[5]; [8]", "value": 27.9}, {"measurement": "IL12, TMP dose response", "setting": "[6]; mDC-T cell co-culture", "value": "dose responsive increases"}, {"measurement": "TNFα, TMP dose response", "setting": "[6]; mDC-T cell co-culture", "value": "dose responsive increases"}, {"measurement": "Cytokine Production IFNg", "setting": "[6]; DMSO", "value": 3791.2, "unit": "pg/mL"}, {"measurement": "Cytokine Production IL12", "setting": "[6]; DMSO", "value": 0.2535, "unit": "pg/mL"}, {"measurement": "Cytokine Production TNFa", "setting": "[6]; DMSO", "value": 82.2712, "unit": "pg/mL"}, {"measurement": "Cytokine Production IFNg", "setting": "[6]; TMP (0.1 μM)", "value": 7432.13, "unit": "pg/mL"}, {"measurement": "Cytokine Production IL12", "setting": "[6]; TMP (0.1 μM)", "value": 0.0705, "unit": "pg/mL"}, {"measurement": "Cytokine Production TNFa", "setting": "[6]; TMP (0.1 μM)", "value": 130.9627, "unit": "pg/mL"}, {"measurement": "Cytokine Production IFNg", "setting": "[6]; TMP (0.5 μM)", "value": 3587.14, "unit": "pg/mL"}, {"measurement": "Cytokine Production TNFa", "setting": "[6]; TMP (0.5 μM)", "value": 83.86, "unit": "pg/mL"}, {"measurement": "Cytokine Production IFNg", "setting": "[6]; TMP (2 μM)", "value": 16375.2, "unit": "pg/mL"}, {"measurement": "Cytokine Production IL12", "setting": "[6]; TMP (2 μM)", "value": 19.372, "unit": "pg/mL"}, {"measurement": "Cytokine Production TNFa", "setting": "[6]; TMP (2 μM)", "value": 248.7836, "unit": "pg/mL"}, {"measurement": "Cytokine Production IFNg", "setting": "[6]; TMP (10 μM)", "value": 13539.7, "unit": "pg/mL"}, {"measurement": "Cytokine Production IL12", "setting": "[6]; TMP (10 μM)", "value": 59.254, "unit": "pg/mL"}, {"measurement": "Cytokine Production TNFa", "setting": "[6]; TMP (10 μM)", "value": 251.2844, "unit": "pg/mL"}, {"measurement": "levels of IFNγ", "setting": "[6]; mDC-T cell co-culture, 10 μM TMP", "value": "comparable to the levels observed with the constitutive construct OT-001661"}, {"measurement": "IFNγ, TMP dose response", "setting": "[6]; mDC-T cell co-culture, lower doses of TMP", "value": "dose responsive increase"}]}
